Key:
Experiment in all cases: BLI; BLItz, Ni-NTA biosensor; phospho-His-SrcKD or variant (58 μM, 5 μL) immobilised as bait for 3 min; rPTPεD1 or variant as analyte, association 120 s, dissociation 120 s; 20 mM Tris-HCl pH 7.5, 50 mM NaCl, 5 mM DTT; 100 μM ATP and 1 μM CSK added before every immobilisation; global fit
[1] = target: phospho-His-SrcKD (phosphorylated His-tagged Src kinase domain, Trp 260-Leu 533, K295M/Y416F) (UniProt P00523)
[2] = target: phospho-His-SrcKD-D518K (phosphorylated His-tagged Src kinase domain, Trp 260-Leu 533, K295M/Y416F and a change at 518) (UniProt P00523)
[3] = target: phospho-His-SrcKD-E486A (phosphorylated His-tagged Src kinase domain, Trp 260-Leu 533, K295M/Y416F/E486A) (UniProt P00523)

| Substance | Kd [1] [µM] | koff [1] [s⁻¹] | kon [1] [M⁻¹ s⁻¹] | Kd [2] [µM] | koff [2] [s⁻¹] | kon [2] [M⁻¹ s⁻¹] | Kd [3] [µM] | koff [3] [s⁻¹] | kon [3] [M⁻¹ s⁻¹] |
| --- | --- | --- | --- | --- | --- | --- | --- | --- | --- |
| rPTPεD1 (D1 domain of rPTP epsilon, Ser 101-Thr 400, C335A) (domain or fragment) | 26.2 | 0.0284 | 1080 | 184 | 0.0661 | 360 | 80.4 | 0.0476 | 592 |
| rPTPεD1-K237D (D1 domain of rPTP epsilon, Ser 101-Thr 400, C335A/K237D) (domain or fragment) | 352 | 0.0853 | 242 |  |  |  |  |  |  |
| rPTPεD1-R220E (D1 domain of rPTP epsilon, Ser 101-Thr 400, C335A/R220E) (domain or fragment) | 168 | 0.0341 | 202 |  |  |  |  |  |  |
